Consider 17 molecules from patent US20260116921A1, “PEPTIDE INHIBITORS OF INTERLEUKIN-23 RECEPTOR AND THEIR USE TO TREAT INFLAMMATORY DISEASES” (priority 2018, published 2026).

Bridge positions count the residues as written; N and C are the ends. Square brackets hold non-standard residues; d marks the D form. Trp(7-Me) = Cc1cccc2c(C[C@H](N)C(=O)O)c[nH]c12; 2Nal = N[C@@H](Cc1ccc2ccccc2c1)C(=O)O; AEF = NCCOc1ccc(C[C@H](N)C(=O)O)cc1; Cit = NC(=O)NCCC[C@H](N)C(=O)O; αMeL = CC(C)C[C@](C)(N)C(=O)O; Pen = CC(C)(S)[C@H](N)C(=O)O; αMeK = C[C@](N)(CCCCN)C(=O)O; Abu = CC[C@H](N)C(=O)O; Aib = CC(C)(N)C(=O)O; βAla = NCCC(=O)O

First the molecules themselves.
T1: IL-23R (human, UniProt Q5VWK5 24-629)
T1 sequence (looked up): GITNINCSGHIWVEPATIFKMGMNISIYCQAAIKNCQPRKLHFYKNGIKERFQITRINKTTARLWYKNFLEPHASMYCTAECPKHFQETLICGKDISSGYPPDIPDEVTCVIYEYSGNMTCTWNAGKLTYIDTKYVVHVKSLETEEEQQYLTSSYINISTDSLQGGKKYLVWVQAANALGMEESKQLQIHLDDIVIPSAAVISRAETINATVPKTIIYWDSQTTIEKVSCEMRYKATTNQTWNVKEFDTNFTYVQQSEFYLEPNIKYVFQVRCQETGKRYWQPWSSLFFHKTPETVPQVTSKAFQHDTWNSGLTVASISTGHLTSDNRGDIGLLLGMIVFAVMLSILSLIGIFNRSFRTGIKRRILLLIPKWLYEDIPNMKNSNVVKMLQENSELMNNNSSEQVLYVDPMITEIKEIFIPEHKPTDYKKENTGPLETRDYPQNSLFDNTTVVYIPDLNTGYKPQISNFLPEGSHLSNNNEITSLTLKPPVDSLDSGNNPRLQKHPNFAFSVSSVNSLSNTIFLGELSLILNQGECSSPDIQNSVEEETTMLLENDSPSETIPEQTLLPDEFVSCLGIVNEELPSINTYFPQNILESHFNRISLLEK

B1: SEQ ID NO: 278 (peptide)
peptide: XNTXQXXXXKNX
modifications: Ac-[Pen]-N-T-[W(7-Me)]-Q-[Pen]-Phe[4-(2-aminoethoxy)]-[2-Nal]-[a-MeOrn]-[Lys(Ac)]-N-[bA]-NH2; Pen-Pen disulfide
B2: SEQ ID NO: 282 (peptide)
peptide: XNTXQXXXXENX
modifications: Ac-[Pen]-N-T-[W(7-Me)]-Q-[Pen]-Phe[4-(2-aminoethoxy)]-[2-Nal]-[a-MeLys]-E-N-[bA]-NH2; Pen-Pen disulfide
B3: SEQ ID NO: 201 (peptide)
peptide: XNTXQXXXXKNX
modifications: Ac-[Pen]-NT-[W(7-Me)]-Q-[Pen]-Phe[4-(2-aminoethoxy)]-[2-Nal]-[a-MeLeu]-[Lys(Ac)]-N-[bA]-NH2; Pen-Pen disulfide
B4: SEQ ID NO: 239 (peptide)
peptide: XKTXQXXXXKNX
modifications: Ac-[Pen]-[Lys(Ac)]-T-[W(7-Me)]-Q-[Pen]-Phe[4-(2-aminoethoxy)]-[2-Nal]-[a-MeLys]-[Lys(Ac)]-N-[bA]-NH2; Pen-Pen disulfide
B5: SEQ ID NO: 221 (peptide)
peptide: XNTXQXXXXKSX
modifications: Ac-[Pen]-NT-[W(7-Me)]-Q-[Pen]-Phe[4-(2-aminoethoxy)]-[2-Nal]-[a-MeLeu]-[Lys(Ac)]-S-[bA]-NH2; Pen-Pen disulfide
B6: SEQ ID NO: 271 (peptide)
peptide: XNTXKXXXXKSX
modifications: Ac-[Pen]-N-T-[W(7-Me)]-[Lys(Ac)]-[Pen]-Phe[4-(2-aminoethoxy)]-[2-Nal]-[a-MeLys]-[Lys(Ac)]-S-[bA]-NH2; Pen-Pen disulfide
B7: SEQ ID NO: 232 (peptide)
peptide: XNTXQXXXXKNX
modifications: Ac-[Pen]-NT-[W(1-Me)]-Q-[Pen]-Phe[4-(2-aminoethoxy)]-[2-Nal]-[a-MeLys]-[Lys(Ac)]-N-[bA]-NH2; Pen-Pen disulfide
B8: SEQ ID NO: 226 (peptide)
peptide: XNTXQXXXXKXX
modifications: Ac-[Pen]-NT-[W(7-Me)]-Q-[Pen]-Phe[4-(2-aminoethoxy)]-[2-Nal]-[a-MeLeu]-[Lys(Ac)]-[bA]-[bA]-NH2; Pen-Pen disulfide
B9: SEQ ID NO: 251 (peptide)
peptide: XNTXKXXXXKNV
modifications: Ac-[Pen]-NT-[W(7-Me)]-[Lys(Ac)]-[Pen]-Phe[4-(2-aminoethoxy)]-[2-Nal]-[a-MeLys]-[Lys(Ac)]-N-[(D)Val]-NH2; Pen-Pen disulfide
B10: SEQ ID NO: 208 (peptide)
peptide: XNTXQXXXXKLX
modifications: Ac-[Pen]-NT-[W(7-Me)]-Q-[Pen]-Phe[4-(2-aminoethoxy)]-[2-Nal]-[a-MeLeu]-[Lys(Ac)]-L-[bA]-NH2; Pen-Pen disulfide
B11: SEQ ID NO: 223 (peptide)
peptide: XNTXQXXXXKXX
modifications: Ac-[Pen]-NT-[W(7-Me)]-Q-[Pen]-Phe[4-(2-aminoethoxy)]-[2-Nal]-[a-MeLeu]-[Lys(Ac)]-[N-MeAla]-[bA]-NH2; Pen-Pen disulfide
B12: SEQ ID NO: 234 (peptide)
peptide: XNTXXXXXXKNX
modifications: Ac-[Pen]-NT-[W(7-Me)]-[a-MeLys]-[Pen]-Phe[4-(2-aminoethoxy)]-[2-Nal]-[a-MeLeu]-[Lys(Ac)]-N-[bA]-NH2; Pen-Pen disulfide

The first assay has as its target T1, IL-23R. Nature of the assay: cell-based or functional assay.
As for Ac-[dR][Abu]QT[Trp(7-Me)]K(Ac)C[AEF][2Nal][αMeK]K(Ac)N[dK]-NH2 (thioether 2-7) [SEQ ID NO: 324], the “NK Cell Assay (nM) IC50” value is below 10 nM.

As for Ac-[Pen]NT[Trp(7-Me)][Cit][Pen][AEF][2Nal][αMeK]K(Ac)N[Aib]-NH2 (disulfide 1-6 (inferred)) [SEQ ID NO: 264], the “NK Cell Assay (nM) IC50” value is below 10 nM.

Take B1: the “NK Cell Assay (nM) IC50” value was below 10 nM.

For the molecule B2, the “NK Cell Assay (nM) IC50” value was below 10 nM.

As to B3, the “NK Cell Assay (nM) IC50” value is below 10 nM.

Ac-[Pen]NT[Trp(7-Me)][Cit][Pen][AEF][2Nal][αMeL]K(Ac)N[βAla]-NH2 (disulfide 1-6) [SEQ ID NO: 227]: the “NK Cell Assay (nM) IC50” value was below 10 nM.

Consider Ac-[Pen]NT[Trp(7-Me)]K(Ac)[Pen][2Nal][2Nal][αMeK]K(Ac)N[dL]-NH2 (disulfide 1-6 (inferred)) [SEQ ID NO: 289], for which the “NK Cell Assay (nM) IC50” value is below 10 nM.

For B4, the “NK Cell Assay (nM) IC50” value is below 10 nM.

Take B5: the “NK Cell Assay (nM) IC50” value is below 10 nM.

B6: the “NK Cell Assay (nM) IC50” value is below 10 nM.

As for B7, the “NK Cell Assay (nM) IC50” value is below 10 nM.

As for B8, the “NK Cell Assay (nM) IC50” value is below 10 nM.

For the molecule B9, the “NK Cell Assay (nM) IC50” value is below 10 nM.

Regarding B10, the “NK Cell Assay (nM) IC50” value is below 10 nM.

As to Ac-[Pen]NT[Trp(7-Me)][Cit][Pen][AEF][2Nal][αMeK]K(Ac)N[dS]-NH2 (disulfide 1-6 (inferred)) [SEQ ID NO: 261], the “NK Cell Assay (nM) IC50” value was below 10 nM.

For the molecule B11, the “NK Cell Assay (nM) IC50” value was below 10 nM.

As for B12, the “NK Cell Assay (nM) IC50” value was below 10 nM.

The target of another assay is T1, IL-23R. Put plainly: cell-based or functional assay. The source holds these as a separate data set.
For the molecule Ac-[Pen]NT[Trp(7-Me)][Cit][Pen][AEF][2Nal][αMeK]K(Ac)N[Aib]-NH2 (disulfide 1-6 (inferred)) [SEQ ID NO: 264], the “pStat3 HTRF (nM) IC50” value is below 1 nM.

In the case of B1, the “pStat3 HTRF (nM) IC50” value is below 1 nM.

For B3, the “pStat3 HTRF (nM) IC50” value was below 1 nM.

Turning to Ac-[Pen]NT[Trp(7-Me)][Cit][Pen][AEF][2Nal][αMeL]K(Ac)N[βAla]-NH2 (disulfide 1-6) [SEQ ID NO: 227], the “pStat3 HTRF (nM) IC50” value is below 1 nM.

On to B9, for which the “pStat3 HTRF (nM) IC50” value was below 1 nM.

On to Ac-[Pen]NT[Trp(7-Me)][Cit][Pen][AEF][2Nal][αMeK]K(Ac)N[dS]-NH2 (disulfide 1-6 (inferred)) [SEQ ID NO: 261], for which the “pStat3 HTRF (nM) IC50” value is below 1 nM.

Regarding B11, the “pStat3 HTRF (nM) IC50” value is above 100 nM.
